Measured values taken from patent publication US20240132578A1.

How the values were obtained:
Experiment in all cases: cell-based or functional assay
[1] = biological target: HIV-1 Env of pseudovirus MGRM-F1-012 (HIV-1)
[2] = biological target: HIV-1 Env of pseudovirus MGRM-F1-008 (HIV-1)
[3] = biological target: HIV-1 Env of pseudovirus MGRM-F1-015 (HIV-1)
[4] = biological target: HIV-1 Env of pseudovirus MGRM-D-018 (HIV-1)
[5] = biological target: HIV-1 Env of pseudovirus MGRM-D-022 (HIV-1)
[6] = biological target: HIV-1 Env of isolate MGRM-AE-001 (pseudovirus) (HIV-1)
[7] = biological target: HIV-1 Env of isolate MGRM-D-005 (HIV-1)
[8] = biological target: HIV-1 Env of isolate MGRM-G-027 (subtype G) (HIV-1)
[9] = biological target: HIV-1 Env of isolate MGRM-C-022 (subtype C), on pseudovirus (HIV-1)
[10] = biological target: HIV-1 Env of isolate MGRM-C-024 (subtype C), on pseudovirus (HIV-1)
[11] = biological target: HIV-1 Env of isolate MGRM-G-011 (subtype G) (HIV-1)
[12] = biological target: HIV-1 envelope glycoprotein (Env) of isolate MGRM-C-006 (HIV-1)
[13] = biological target: HIV-1 Env of isolate JRCSF (Clade B) (HIV-1) (UniProt P20871)
[14] = biological target: HIV-1 envelope glycoprotein (Env) of isolate LAVI_C3 (HIV-1)
[15] = biological target: HIV-1 Env of isolate 92RW008 (clade A pseudovirus) (HIV-1)
[16] = biological target: HIV-1 Env of pseudovirus MGRM-G-011 (HIV-1)
[17] = biological target: HIV-1 Env of isolate MGRM-Chronic-B-002, clade B (HIV-1)
[18] = biological target: HIV-1 94UG103 envelope (Env) on pseudovirus (HIV-1)
[19] = biological target: HIV-1 Env of pseudovirus MGRM-F1-022 (clade F) (HIV-1)
[20] = biological target: HIV-1 92RW021 envelope glycoprotein (Env) on pseudovirus (HIV-1 (clade A))
[21] = biological target: HIV-1 MGRM-D-018 Env (HIV-1)
[22] = biological target: HIV-1 envelope glycoprotein (Env) of isolate 93IN905 (HIV-1)
[23] = biological target: HIV-1 Env of isolate 92RW020 (clade A pseudovirus) (HIV-1)
[24] = biological target: HIV-1 Env of pseudovirus MGRM-G-024 (HIV-1)
[25] = biological target: HIV-1 MGRM-C-028 Env (HIV-1)
[26] = biological target: HIV-1 Env of isolate 93IN905 (Clade C) (HIV-1)
[27] = biological target: HIV-1 envelope glycoprotein (Env) of isolate MGRM-Chronic-B-017, on pseudovirus (HIV-1)
[28] = biological target: HIV-1 Env of isolate MGRM-F1-021 (pseudovirus) (HIV-1)
[29] = biological target: HIV-1 JR-CSF Env T303A (HIV-1 (isolate JR-CSF, clade B)) (UniProt P20871)
[30] = biological target: HIV-1 Env of isolate MGRM-F1-017 (pseudovirus) (HIV-1)
[31] = biological target: HIV-1 envelope glycoprotein (Env) of isolate MGRM-Chronic-B-020, on pseudovirus (HIV-1)
[32] = biological target: HIV-1 Env of isolate MGRM-F1-015 (pseudovirus) (HIV-1)
[33] = biological target: HIV-1 envelope glycoprotein (Env) of isolate PVO.4, on pseudovirus (HIV-1)
[34] = biological target: HIV-1 envelope glycoprotein (Env) of isolate QH0692.42, on pseudovirus (HIV-1)
[35] = biological target: HIV-1 JR-CSF Env N411A (HIV-1 (isolate JR-CSF)) (UniProt P20871)

Chain of 4980_N08 (PGT-143) (antibody) (VH): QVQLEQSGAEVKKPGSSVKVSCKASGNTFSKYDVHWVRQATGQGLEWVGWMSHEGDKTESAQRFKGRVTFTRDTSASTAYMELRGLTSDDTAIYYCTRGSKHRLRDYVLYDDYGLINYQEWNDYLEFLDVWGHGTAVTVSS
Chain of 4980_N08 (PGT-143) (antibody) (VL): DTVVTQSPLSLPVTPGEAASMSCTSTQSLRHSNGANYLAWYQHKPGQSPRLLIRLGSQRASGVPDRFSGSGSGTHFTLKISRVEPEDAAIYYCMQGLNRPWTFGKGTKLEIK
Chain of 4993_K13 (PGT-141) (antibody) (VH): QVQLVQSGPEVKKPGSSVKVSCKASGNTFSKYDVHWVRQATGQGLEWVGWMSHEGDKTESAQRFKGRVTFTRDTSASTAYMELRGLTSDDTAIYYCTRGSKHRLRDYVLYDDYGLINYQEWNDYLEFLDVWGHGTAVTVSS
Chain of 4993_K13 (PGT-141) (antibody) (VL): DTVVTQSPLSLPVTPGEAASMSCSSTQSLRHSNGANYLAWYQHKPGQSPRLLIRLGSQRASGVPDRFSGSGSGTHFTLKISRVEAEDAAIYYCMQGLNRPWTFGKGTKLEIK
Chain of PGT-144 (4970_K22) (antibody) (VH): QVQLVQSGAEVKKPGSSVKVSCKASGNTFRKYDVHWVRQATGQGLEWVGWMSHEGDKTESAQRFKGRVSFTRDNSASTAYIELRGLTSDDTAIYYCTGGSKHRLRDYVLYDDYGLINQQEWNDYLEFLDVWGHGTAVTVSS
Chain of PGT-144 (4970_K22) (antibody) (VL): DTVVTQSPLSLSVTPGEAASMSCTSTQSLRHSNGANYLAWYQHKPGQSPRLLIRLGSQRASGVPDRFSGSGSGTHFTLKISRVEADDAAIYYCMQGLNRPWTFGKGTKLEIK

Row | Substance | IC50, pseudovirus neutralization [1] [µg/mL] | IC50, pseudovirus neutralization [2] [µg/mL] | IC50, pseudovirus neutralization [3] [µg/mL] | IC50, pseudovirus neutralization [4] [µg/mL] | IC50, pseudovirus neutralization [5] [µg/mL] | IC50 (µg/mL), single-round pseudovirus neutralization [6] [µg/mL] | IC50 (µg/mL), pseudovirus neutralization [7] [µg/mL] | IC50 (µg/mL), pseudovirus neutralization [8] [µg/mL] | IC50, single-round pseudovirus neutralization [9] [µg/mL] | IC50, single-round pseudovirus neutralization [10] [µg/mL] | IC50 (µg/mL), pseudovirus neutralization [11] [µg/mL] | IC50, pseudovirus neutralization [27] [µg/mL] | IC50 (µg/mL), pseudovirus neutralization [28] [µg/mL] | IC50 (µg/mL), pseudovirus neutralization [30] [µg/mL] | IC50, pseudovirus neutralization [31] [µg/mL] | IC50 (µg/mL), pseudovirus neutralization [32] [µg/mL] | IC50, pseudovirus neutralization [33] [µg/mL] | IC50, pseudovirus neutralization [34] [µg/mL] | other results
1 | PGT-143 (4980_N08) (antibody) | > 50 | 0.189 | > 50 | > 50 | > 50 | – | – | – | – | – | – | – | – | – | – | – | – | – | –
2 | PGT-144 (4970_K22) (antibody) | > 50 | 0.507 | > 50 | > 50 | > 50 | – | – | – | – | – | – | – | – | – | – | – | – | – | –
3 | VRC01 (antibody) | 0.488 | 1.11 | 0.387 | > 50 | > 50 | 0.167 | > 50 | 0.36 | 13 | 3.4 | 0.065 | – | – | – | – | – | – | – | –
4 | 4980_N08 (PGT-143) (antibody) | – | – | – | – | – | > 50 | 1.41 | > 50 | 0.103 | 0.05 | 0.074 | – | – | – | – | – | – | – | –
5 | 1496_C09 (PG9) (TCN-109) (antibody) | – | – | – | – | – | – | – | 0.007 | – | – | 0.335 | – | – | – | – | – | – | – | IC50 (µg/ml), pseudovirus neutralization [12]: 0.23 µg/mL; IC90 (neutralization of pseudovirus) [13]: < 0.0025 µg/mL; Neutralization IC80 [13]: 0.0181 µg/mL; Neutralization IC90 [13]: 0.0391 µg/mL; Neutralization IC95 [13]: 0.0798 µg/mL; neutralization IC50 [13]: 0.0048 µg/mL; IC50 (µg/mL), pseudovirus neutralization [6]: 20.6 µg/mL; IC50 (µg/ml), pseudovirus neutralization [14]: 1.45 µg/mL; IC50 (µg/ml), pseudovirus neutralization [15]: 0.01 µg/mL; IC50 (µg/ml), pseudovirus neutralization [16]: 0.19 µg/mL; IC50 (µg/ml), pseudovirus neutralization [17]: 1.41 µg/mL; neutralization IC50 [18]: 0.173 µg/mL; IC50 [19]: 0.06 µg/mL; IC50 (µg/ml), pseudovirus neutralization [20]: 0.05 µg/mL; IC50, pseudovirus neutralization [21]: 2.04 µg/mL; IC50 (µg/ml), pseudovirus neutralization [22]: 0.03 µg/mL; IC50 (µg/ml), pseudovirus neutralization [23]: 0.08 µg/mL; IC50 (µg/ml), pseudovirus neutralization [24]: 0.07 µg/mL; IC50, pseudovirus neutralization [25]: 0.121 µg/mL; IC90 (neutralization of pseudovirus) [26]: 1.89 µg/mL
6 | 4993_K13 (PGT-141) (antibody) | – | – | – | – | – | > 50 | 5.15 | > 50 | 0.381 | 0.101 | 0.086 | – | – | – | – | – | – | – | –
7 | PGV04 (antibody) | – | – | – | – | – | – | – | 0.125 | – | – | 0.78 | – | – | – | – | – | – | – | IC50 (µg/mL), pseudovirus neutralization [6]: 0.063 µg/mL
8 | 5145_B14 (PGT-127) (antibody) | – | – | – | – | – | – | – | – | – | – | – | > 50 | > 50 | > 50 | 0.05 | > 50 | 0.164 | 0.129 | Fold IC50 increase relative to wild-type [29]: > 500 fold; Fold IC50 increase relative to wild-type (pseudovirus neutralization) [35]: 0.8 fold
9 | 4838_L06 (PGT-121) (antibody) | – | – | – | – | – | – | – | – | – | – | – | > 50 | 0.099 | 16.9 | 0.004 | 28.4 | 0.137 | 0.823 | –
10 | 4858_P08 (PGT-123) (antibody) | – | – | – | – | – | – | – | – | – | – | – | > 50 | 0.307 | > 50 | 0.005 | > 50 | 0.105 | 0.158 | IC50, pseudovirus neutralization [21]: 0.0047 µg/mL; IC50, pseudovirus neutralization [25]: 0.443 µg/mL; Fold IC50 increase relative to wild-type (pseudovirus neutralization) [35]: 0.5 fold
